Assay results from patent publication US6861578B1, “Method for plant protection against insects or nematodes by transformation with a nucleic acid encoding equistatin” (Plant Research International B.V., priority 1997, dated 2005).

Experiments:
[1] = test system: tri-peptidil-peptidase and endoprotease activity of Colorado potato beetle larval gut extracts; test: Tri-peptidil-peptidase and endoprotease activity of Colorado potato beetle gut extract, pGlu-Phe-Leu-pNA; assay type: biochemical, Leptinotarsa decemlineata
Excerpt: Guts of final instar Colorado potato beetle larvae reared on methyl jasmonate induced plants were isolated and extracted essentially as described (Bolter and Jongsma, J. Insect Physiol. 41: 1071-1078). In these gut extracts the proteases that are sensitive to the protease inhibitors of potato are already complexed. The residual protease activity is composed of potato protease-inhibitor-insensitive proteases which were induced in response to the methyl jasmonate induced potato inhibitors. These proteases are the proteases that render the beetle larvae insensitive to protease inhibitor defense of the potato plant. Wle tested a broad range of different cysteisie protease inhibitors for activity specifically against these induced potato protease inhibitor-insensitive cysteine protesses. Nearly all of these inhibitors were purified at the Jozef Stefan Institute in Slovenia. Testing their potential against Colorado potato beetle was done using both general protein substrates (azocasein, table 2) as well as specific synthetic substrates (L-Arg-pNA, table 3; pGlu-Phe-Leu-pNA, table 4; Z-Phe-Arg-pNA, table 5; Z-Arg-Arg-pNA, table 6). In specific cases inhibitors were tested at two concentrations, eauimolar and in excess to the protease, in order to obtain an indication of the tightness of the complex. […] Importantly, this class of inhibitors was capable of inhibiting nearly all general cysteine protease activity. The equistatin peptide molecule and a functional derivative thereof were not very active against the aminopeptidase-like cysteine protease activity. […] The best combination of inhibitors for full toxicity against the Colorado potato beetle would therefore be a combination of equistatin or p41 invariant chain fragment and stefin-like inhibitors.

papain = target: T1, papain (Carica papaya, UniProt P00784); test: Kinetic analysis of papain inactivation (continuous rate assay); assay type: biochemical
T1 sequence (P00784 134-345): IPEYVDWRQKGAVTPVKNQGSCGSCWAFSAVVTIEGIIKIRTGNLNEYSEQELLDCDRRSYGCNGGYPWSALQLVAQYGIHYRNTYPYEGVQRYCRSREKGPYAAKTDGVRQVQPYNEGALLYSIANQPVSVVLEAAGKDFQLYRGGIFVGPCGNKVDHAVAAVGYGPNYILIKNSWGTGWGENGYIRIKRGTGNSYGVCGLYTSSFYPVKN

[2] = test system: Colorado potato beetle proteases; test: Protease activity of Colorado potato beetle larval gut extract at pH 3, FITC-hemoglobin; assay type: biochemical, Leptinotarsa decemlineata; design: inhibition of total protease activity / increase of inhibition by addition of equistatin to E64 / increase of inhibition by addition of equistatin to pepstatin: concentration or dose not given beside the values
Protocol: Adult western flower thrips (Frankliniella occidentalis) and leafmirer flies (Liriomyza trifolii) adult were harvested from a culture maintained on chrysanthemum plants and complete thrips and flies were homogenized in extraction on buffer (200 mM β-alanine-HCl, pH 3.5) in a volume of 5 times the weight of the insects. The buffer pH was at the previously determined pH optimum of protease activity towards hemoglobin. Final instar Colorado potato beetle larvae maintained on potato plants as described in example 5 were checked for gut aspartic protease activity by preparing a total gut extract in pH 3 buffer which is optimal for Colorado potato beetle aspartic proteases (200 mM glycine, pH 3). Guts were homogenized in 100 μl buffer per gut. Third instar western corn rootworm larvae maintained on corn roots were used to remove the guts. Ten guts were homogenized in 100 μl water and spinned twice to remove insoluble material. Two types of buffers were used in the enzymatic assay. One with a pH presumably favoring cysteine proteases (50 mM MES, pH 6.5; 0.6 mg/ml L-cysteine) and one for detecting aspartic proteases (200 mM glycine, pH 3). Supernatants were stored at −20° C.
2 μl gut extract was combined with 2 μl inhibitor (2 mM pepstatin in methanol, 4 mM E64 in water, 2 mg/ml recombinant equistatin in water. The concentration of the other proteinaceous inhibitors was not known exactly). Appropriate buffers were added to a final volume of 100 μl. After 15′ preincubation 20 μl substrate (5 mg/ml FITC-hemoglobin) was added and incubated for 30-45 min at 37 C.
Reaction was stopped by the addition of 100 μl 10% TCA. Tubes were centrifuged and 100 μl supernatant mixed with 100 μl 10 N NaOH was measured on a fluorimeter for the extent of hemoglobin hydrolysis. Measurements were done in duplicate on one (thrips, leafminer and western corn rootworm), or three (Colorado potato beetle) different gut extracts and varied by a maximum of +/−5%.

B1: equistatin: cysteine/aspartic protease inhibitor from sea anemone Actinia equina with three type I repeated thyroglobulin domains; purified or recombinant from E. coli (protein)
chain: SLTKCQQLQASANSGLIGTYVPQCKETGEFEEKQCWGSTGYCWCVDEDGKEILGTKIRGSPDCSRRKAALTLCQMMQAIIVNVPGWCGPPSCKADGSFDEVQCCASNGECYCVDKKGKELEGTRQQGRPTCERHLSECEEARIKAHSNSLRVEMFVPECLEDGSYNPVQCWPSTGYCWCVDEGGVKVPGSDVRFKRPTC
modifications: left off: large carriers; small tags and cut ends
notes: purified or recombinant from E. coli
[1]; equimolar
  % of residual activity, equimolar: 10%
[1]; excess inhibitor
  % of residual activity, excess inhibitor: −5%
papain; Ki calculated from the ratio kd/ka
  Ki: 0.57 ± 0.04 nM
papain; continuous rate assay, printed value is 10^4 × kd
  10^4 × kd: 65 ± 1.5 s^−1
papain; continuous rate assay, printed value is 10^−6 × ka
  10^−6 × ka: 12 ± 0.6 M^−1 s^−1
[2]; Colorado potato beetle, pH3
  increase of inhibition by addition of equistatin to E64: 42%
  increase of inhibition by addition of equistatin to pepstatin: 12%
  inhibition of both aspartic and cysteine protease activity: more than 50%
  inhibition of total protease activity: 62%
[2]; colorado potato beetle pH 3, recombinant equistatin
  residual protease activity: 36%
